Assay results reported in PMC2728497.

Molecular target: Aβ1-40wt (human)
Experiment: SEC

Aβ1-40wt (peptide)
stoichiometry N: 2
